Results as given in PMC11698036, “Borg5 restricts contractility and motility in epithelial MDCK cells” (Journal of Cell Science, 2024).

T1: His–Borg5 (recombinant mouse Borg5, Cdc42EP1) (mouse, UniProt Q91W92 1-409)
T1 construct: Borg5 (Cdc42EP1), mouse cDNA (Borg5–Myc cDNA of Vong et al., 2010), PCR-cloned into pet28a+; All recombinant Borg5 constructs were based on mouse Borg5–Myc cDNA; Runs at 50 kDa on the His blot; also called His-tagged Borg5; source: E. coli BL21(DE3), purified (boiled, 8 M urea, Ni-NTA agarose; also purified under native conditions)
T1 sequence (looked up): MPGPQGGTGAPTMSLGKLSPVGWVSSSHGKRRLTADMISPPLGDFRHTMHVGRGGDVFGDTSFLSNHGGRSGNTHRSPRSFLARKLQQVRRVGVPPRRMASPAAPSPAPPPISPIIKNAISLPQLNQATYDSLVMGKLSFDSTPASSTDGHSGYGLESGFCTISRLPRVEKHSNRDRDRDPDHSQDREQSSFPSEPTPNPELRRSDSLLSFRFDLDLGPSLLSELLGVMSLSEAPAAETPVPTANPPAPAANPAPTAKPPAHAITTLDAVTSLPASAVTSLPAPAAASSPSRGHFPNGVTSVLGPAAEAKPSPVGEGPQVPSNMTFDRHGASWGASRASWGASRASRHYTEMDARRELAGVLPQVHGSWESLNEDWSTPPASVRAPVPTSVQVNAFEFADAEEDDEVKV


Key:
[1] = molecular target: T1, His–Borg5 (recombinant mouse Borg5, …); assay: pull-down; three-way assay: His–MyoIIA-Rod pre-incubated with His–Borg5, then bound to His–SEPT2/6/7/9–Strep immobilised on Strep-Tactin Sepharose; septin buffer (300 mM KCl), 4°C; biotin elution; His blot; four experiments; settings: both partners purified
[2] = molecular target: T1, His–Borg5 (recombinant mouse Borg5, …); assay: pull-down; three-way assay: His–Borg5 pre-incubated with septin 9-6-7-2 complexes, then bound to GST–MyoIIA-Rod immobilised on glutathione resin; septin buffer (300 mM KCl), 4°C; Coomassie gel and His blot; two experiments; settings: both partners purified

Borg5–SEPT binding with His-MyoIIRod, relative to that without MyoIIRod [1] | His–Borg5 binding to Myo–GST with SEPT complexes, relative to that without septins (experiment 1) [2] | His–Borg5 binding to Myo–GST with SEPT complexes, relative to that without septins (experiment 2) [2] | Binder
0.57 fraction of that without MyoIIRod |  |  | His-tagged rod domain of myosin IIA (His–MyoIIA-Rod) (domain or fragment, UniProt P35579 1339-1960, looked up, Myosin IIA heavy chain (MYH9), rod domain, amino acids 1339–1960, in pet28a; Construct provided by Anne Bresnick; also called His-MyoIIRod; His-MyoRod; source: E. coli BL21(DE3), purified (Mg-ATP step, nickel agarose)) NSFREQLEEEEEAKHNLEKQIATLHAQVADMKKKMEDSVGCLETAEEVKRKLQKDLEGLSQRHEEKVAAYDKLEKTKTRLQQELDDLLVDLDHQRQSACNLEKKQKKFDQLLAEEKTISAKYAEERDRAEAEAREKETKALSLARALEEAMEQKAELERLNKQFRTEMEDLMSSKDDVGKSVHELEKSKRALEQQVEEMKTQLEELEDELQATEDAKLRLEVNLQAMKAQFERDLQGRDEQSEEKKKQLVRQVREMEAELEDERKQRSMAVAARKKLEMDLKDLEAHIDSANKNRDEAIKQLRKLQAQMKDCMRELDDTRASREEILAQAKENEKKLKSMEAEMIQLQEELAAAERAKRQAQQERDELADEIANSSGKGALALEEKRRLEARIAQLEEELEEEQGNTELINDRLKKANLQIDQINTDLNLERSHAQKNENARQQLERQNKELKVKLQEMEGTVKSKYKASITALEAKIAQLEEQLDNETKERQAACKQVRRTEKKLKDVLLQVDDERRNAEQYKDQADKASTRLKQLKRQLEEAEEEAQRANASRRKLQRELEDATETADAMNREVSSLKNKLRRGDLPFVVPRRMARKGAGDGSDEEVDGKADGAEAKPAE
 | 0.6 fraction of that observed without septins present | 0.3 fraction of that observed without septins present | septin 9–septin 6–septin 7–septin 2 complex (His–SEPT2/6/7/9–Strep) (complex, Prepared according to Castro-Linares et al. (2022); Tag ends are read from the plasmid names; As I recall, these Addgene plasmids hold mouse SEPT2 and human SEPT6, SEPT7 and SEPT9_i1; also called septin 9-6-7-2; SEPT complexes; source: E. coli BL21(DE3), co-expressed, purified (nickel agarose, then Strep-Tactin Sepharose); not shown: 6xHis, N-terminal, kept; Strep tag, C-terminal, kept; copies: + …) chain 1: MSKQQPTQFINPETPGYVGFANLPNQVHRKSVKKGFEFTLMVVGESGLGKSTLINSLFLTDLYPERIIPGAAEKIERTVQIEASTVEIEERGVKLRLTVVDTPGYGDAINCRDCFKTIISYIDEQFERYLHDESGLNRRHIIDNRVHCCFYFISPFGHGLKPLDVAFMKAIHNKVNIVPVIAKADTLTLKERERLKKRILDEIEEHSIKIYHLPDAESDEDEDFKEQTRLLKASIPFSVVGSNQLIEAKGKKVRGRLYPWGVVEVENPEHNDFLKLRTMLITHMQDLQEVTQDLHYENFRSERLKRGGRKVENEDMNKDQILLEKEAELRRMQEMIARMQAQMQMQMQGGDSDSGALGQHV chain 2: MAATDIARQVGEGCRTVPLAGHVGFDSLPDQLVNKSVSQGFCFNILCVGETGLGKSTLMDTLFNTKFEGEPATHTQPGVQLQSNTYDLQESNVRLKLTIVSTVGFGDQINKEDSYKPIVEFIDAQFEAYLQEELKIRRVLHTYHDSRIHVCLYFIAPTGHSLKSLDLVTMKKLDSKVNIIPIIAKADAISKSELTKFKIKITSELVSNGVQIYQFPTDDESVAEINGTMNAHLPFAVIGSTEELKIGNKMMRARQYPWGTVQVENEAHCDFVKLREMLIRVNMEDLREQTHTRHYELYRRCKLEEMGFKDTDPDSKPFSLQETYEAKRNEFLGELQKKEEEMRQMFVQRVKEKEAELKEAEKELHEKFDRLKKLHQDEKKKLEDKKKSLDDEVNAFKQRKTAAELLQSQGSQAGGSQTLKRDKEKKNNPWLCTE chain 3: MSVSARSAAAEERSVNSSTMVAQQKNLEGYVGFANLPNQVYRKSVKRGFEFTLMVVGESGLGKSTLINSLFLTDLYSPEYPGPSHRIKKTVQVEQSKVLIKEGGVQLLLTIVDTPGFGDAVDNSNCWQPVIDYIDSKFEDYLNAESRVNRRQMPDNRVQCCLYFIAPSGHGLKPLDIEFMKRLHEKVNIIPLIAKADTLTPEECQQFKKQIMKEIQEHKIKIYEFPETDDEEENKLVKKIKDRLPLAVVGSNTIIEVNGKRVRGRQYPWGVAEVENGEHCDFTILRNMLIRTHMQDLKDVTNNVHYENYRSRKLAAVTYNGVDNNKNKGQLTKSPLAQMEEERREHVAKMKKMEMEMEQVFEMKVKEKVQKLKDSEAELQRRHEQMKKNLEAQHKELEEKRRQFEDEKANWEAQQRILEQQNSSRTLEKNKKKGKIF chain 4: MKKSYSGGTRTSSGRLRRLGDSSGPALKRSFEVEEVETPNSTPPRRVQTPLLRATVASSTQKFQDLGVKNSEPSARHVDSLSQRSPKASLRRVELSGPKAAEPVSRRTELSIDISSKQVENAGAIGPSRFGLKRAEVLGHKTPEPAPRRTEITIVKPQESAHRRMEPPASKVPEVPTAPATDAAPKRVEIQMPKPAEAPTAPSPAQTLENSEPAPVSQLQSRLEPKPQPPVAEATPRSQEATEAAPSCVGDMADTPRDAGLKQAPASRNEKAPVDFGYVGIDSILEQMRRKAMKQGFEFNIMVVGQSGLGKSTLINTLFKSKISRKSVQPTSEERIPKTIEIKSITHDIEEKGVRMKLTVIDTPGFGDHINNENCWQPIMKFINDQYEKYLQEEVNINRKKRIPDTRVHCCLYFIPATGHSLRPLDIEFMKRLSKVVNIVPVIAKADTLTLEERVHFKQRITADLLSNGIDVYPQKEFDEDSEDRLVNEKFREMIPFAVVGSDHEYQVNGKRILGRKTKWGTIEVENTTHCEFAYLRDLLIRTHMQNIKDITSSIHFEAYRVKRLNEGSSAMANGMEEKEPEAPEM
